From article PMC7020254

Assays:
P00451 [1] = experiment: AUC; sedimentation velocity, 105,000 g, 20 C, A280; Helixate desalted into HBS/Ca/PS-80, treated 10 min with 80 uM ClO- or control buffer, exchanged into HBS/Ca/PS-80; c(s) 0-100 S; aggregates 12-100 S relative to 5-100 S
P00451 [2] = experiment: AUC; sedimentation velocity, 105,000 g, 20 C, A280; Helixate in 2x formulation buffer treated with 80 uM ClO- or control buffer, then buffer exchange on a desalting column; c(s) 0-100 S; aggregates 12-100 S relative to 5-100 S
P00451 [3] = experiment: AUC; sedimentation velocity, 105,000 g, 20 C, A280; Helixate in its therapeutic formulation buffer; c(s) 0-200 S; aggregates integrated 15-100 S
P00451 [4] = experiment: AUC; sedimentation velocity, 105,000 g, 20 C, A280; Helixate exchanged into HBS/Ca/PS-80 and immediately run; c(s) 0-200 S; aggregates integrated 12-100 S

Substance	percent of signal in aggregates (12-100 S relative to 5-100 S) (P00451 [1])	percent of signal in aggregates (12-100 S relative to 5-100 S) (P00451 [2])	percent of signal in aggregates (15-100 S) (P00451 [3])	percent of signal in aggregates (12-100 S) (P00451 [4])
Helixate FS (recombinant full-length factor VIII) oxidized with 80 uM ClO-	13.4 and 13.3% of the signal	14.5 and 9.2%	–	–
Helixate FS (recombinant full-length factor VIII), non-oxidized	13.4 and 13.3% of the signal	14.5 and 9.2%	18.9% and 15.9%	18.9% and 15.9%
